According to patent publication US11224662B2, “Methods and therapeutics comprising ligand-targeted ELPs” (priority 2012, dated 2022):

Columns and labels:
[1] = Temperature-dependent optical density (turbidity) of ELP fusion peptides; assay type: physicochemical; conditions: for Critical aggregation temperature: optical density at 350 nm by UV-Vis spectrophotometer; for phase transition behaviour in optical density over temperature gradient: monoblock knob-ELPs, single increase in optical density
Protocol: (§1) To explore the temperature-dependent phase behavior of the ELPs, optical density and hydrodynamic radius were observed over a range of temperatures. Knob-S96, S48148 and knob-S48148 were diluted to 25 μM in PBS on ice and the absorbance at 350 nm was monitored with a DU800 UV-Vis spectrophotometer (Beckman Coulter, Brea, Calif.) at a temperature gradient of 1° C./minute. […] Then 90 μL sample of was transferred into a 384 well microplate and covered with 20 μL mineral oil. The microplate and mineral oil were pre-chilled at 4° C. at least for 1 hour. The microplate was centrifuged at 4° C. to remove air bubbles from samples before and after addition of mineral oil. Then the sample was measured in a DynaPro plate reader (Wyatt Inc., Santa Barbara, Calif.) at temperature intervals of 1° C. The resulting hydrodynamic radii were collected and analyzed by Dynamics (Wyatt Inc., Santa Barbara, Calif.).

[2] = system: transformed mouse hepatocytes; assay: Live cell uptake of rhodamine-conjugated ELP/knob-ELP in hepatocytes; assay type: cell-based; conditions: 10 μM rhodamine-labeled, 30 minutes at 37° C., confocal microscopy, LYSOTRACKER green
Protocol: To track cellular uptake, the ELPs S48148 and knob-S48148 were conjugated with a detectable label, NHS-Rhodamine (Thermo Fisher Scientific Inc, Rockford, Ill.) via covalent modification of primary amines at the amino end of the peptide. For S48148, the only available amine is at the amino terminus; however, knob-S48148 has an additional 11 lysine residues that may be sites of modification. The conjugation was performed in 100 mM borate buffer for 2 hours at 4° C., and the conjugated ELP was separated by size exclusion chromatography on a PD10 desalting column (GE Healthcare, Piscataway, N.J.).
To observe uptake into mouse hepatocytes, cells were cultured on 35 mm glass coverslip-bottomed dishes with medium [(DMEM (4.5 g/L) containing 10% fetal bovine serum, g/ml insulin, and 0.02 [μg/ml epidermal growth factor]. Uptake studies were conducted when hepatocytes reached 70% confluence. After washing with warm fresh medium, hepatocytes were cultured in medium containing 10 μM of either S48148 or knob-S48148 conjugated with rhodamine, and 75 nM LYSOTRACKER® green. After 30 minutes incubation at 37° C., the cells were rinsed with warm fresh medium to remove the free knob-ELP/ELP in the medium. Next cells were incubated with 75 nM LYSOTRACKER® green in a 37° C. incubation chamber. […]

[3] = Dynamic light scattering of ELP nanoparticles; assay type: physicochemical; conditions: for formation of nanoparticles: ELP without knob, S96 and I96 data not shown; for Hydrodynamic radius (nm) at 37° C.: 25 μM in PBS
Protocol: as §1

B1: G(VPGSG)48(VPGIG)48Y (SEQ ID. NO: 10) (protein)
chain: GVPGSGVPGSGVPGSGVPGSGVPGSGVPGSGVPGSGVPGSGVPGSGVPGSGVPGSGVPGSGVPGSGVPGSGVPGSGVPGSGVPGSGVPGSGVPGSGVPGSGVPGSGVPGSGVPGSGVPGSGVPGSGVPGSGVPGSGVPGSGVPGSGVPGSGVPGSGVPGSGVPGSGVPGSGVPGSGVPGSGVPGSGVPGSGVPGSGVPGSGVPGSGVPGSGVPGSGVPGSGVPGSGVPGSGVPGSGVPGSGVPGIGVPGIGVPGIGVPGIGVPGIGVPGIGVPGIGVPGIGVPGIGVPGIGVPGIGVPGIGVPGIGVPGIGVPGIGVPGIGVPGIGVPGIGVPGIGVPGIGVPGIGVPGIGVPGIGVPGIGVPGIGVPGIGVPGIGVPGIGVPGIGVPGIGVPGIGVPGIGVPGIGVPGIGVPGIGVPGIGVPGIGVPGIGVPGIGVPGIGVPGIGVPGIGVPGIGVPGIGVPGIGVPGIGVPGIGVPGIGY
Transition Temperature T1 ([1]; first phase transition, optical density, 25 μM in PBS): 26.5 °C
Critical aggregation temperature ([1]; 25 μM in PBS): 26.5 °C
Transition Temperature T2 ([1]; second phase transition, optical density, 25 μM in PBS): 75 °C
cellular uptake / fluorescence localisation [2]: slightly more intense fluorescence on the cell surface
size by dynamic light scattering (BSA; unimers of the ELPs) ([3]; BSA stable from 10 to 37° C., ELPs as unimers below assembly temperature): around 4 nm
formation of nanoparticles [3]: form nanoparticles at physiological temperatures
critical nanoparticle temperature (CNT) ([3]; dynamic light scattering): 26.5 °C
Hydrodynamic radius (nm) at 37° C. ([3]; dynamic light scattering): 23.7 nm
hydrodynamic diameter of nanoparticles ([3]; dynamic light scattering, self-assembled nanoparticles): around 40 nm

B2: (VPGSG)96 (SEQ ID. NO: 13) (protein)
chain: VPGSGVPGSGVPGSGVPGSGVPGSGVPGSGVPGSGVPGSGVPGSGVPGSGVPGSGVPGSGVPGSGVPGSGVPGSGVPGSGVPGSGVPGSGVPGSGVPGSGVPGSGVPGSGVPGSGVPGSGVPGSGVPGSGVPGSGVPGSGVPGSGVPGSGVPGSGVPGSGVPGSGVPGSGVPGSGVPGSGVPGSGVPGSGVPGSGVPGSGVPGSGVPGSGVPGSGVPGSGVPGSGVPGSGVPGSGVPGSGVPGSGVPGSGVPGSGVPGSGVPGSGVPGSGVPGSGVPGSGVPGSGVPGSGVPGSGVPGSGVPGSGVPGSGVPGSGVPGSGVPGSGVPGSGVPGSGVPGSGVPGSGVPGSGVPGSGVPGSGVPGSGVPGSGVPGSGVPGSGVPGSGVPGSGVPGSGVPGSGVPGSGVPGSGVPGSGVPGSGVPGSGVPGSGVPGSGVPGSGVPGSGVPGSGVPGSGVPGSGVPGSGVPGSGVPGSGVPGSG
formation of nanoparticles [3]: do not form nanoparticles

B3: knob-(VPGSG)96Y (SEQ ID. NO: 8) (protein)
chain: VPGSGVPGSGVPGSGVPGSGVPGSGVPGSGVPGSGVPGSGVPGSGVPGSGVPGSGVPGSGVPGSGVPGSGVPGSGVPGSGVPGSGVPGSGVPGSGVPGSGVPGSGVPGSGVPGSGVPGSGVPGSGVPGSGVPGSGVPGSGVPGSGVPGSGVPGSGVPGSGVPGSGVPGSGVPGSGVPGSGVPGSGVPGSGVPGSGVPGSGVPGSGVPGSGVPGSGVPGSGVPGSGVPGSGVPGSGVPGSGVPGSGVPGSGVPGSGVPGSGVPGSGVPGSGVPGSGVPGSGVPGSGVPGSGVPGSGVPGSGVPGSGVPGSGVPGSGVPGSGVPGSGVPGSGVPGSGVPGSGVPGSGVPGSGVPGSGVPGSGVPGSGVPGSGVPGSGVPGSGVPGSGVPGSGVPGSGVPGSGVPGSGVPGSGVPGSGVPGSGVPGSGVPGSGVPGSGVPGSGVPGSGVPGSGVPGSGVPGSGVPGSGVPGSGVPGSGVPGSGY
phase transition behaviour in optical density over temperature gradient [1]: well above physiological conditions
Critical aggregation temperature ([1]; 25 μM in PBS): 68.2 °C
Hydrodynamic radius (nm) at 37° C. ([3]; dynamic light scattering): 5.3 nm

B4: (VPGIG)96 (SEQ ID. NO: 14) (protein)
chain: VPGIGVPGIGVPGIGVPGIGVPGIGVPGIGVPGIGVPGIGVPGIGVPGIGVPGIGVPGIGVPGIGVPGIGVPGIGVPGIGVPGIGVPGIGVPGIGVPGIGVPGIGVPGIGVPGIGVPGIGVPGIGVPGIGVPGIGVPGIGVPGIGVPGIGVPGIGVPGIGVPGIGVPGIGVPGIGVPGIGVPGIGVPGIGVPGIGVPGIGVPGIGVPGIGVPGIGVPGIGVPGIGVPGIGVPGIGVPGIGVPGIGVPGIGVPGIGVPGIGVPGIGVPGIGVPGIGVPGIGVPGIGVPGIGVPGIGVPGIGVPGIGVPGIGVPGIGVPGIGVPGIGVPGIGVPGIGVPGIGVPGIGVPGIGVPGIGVPGIGVPGIGVPGIGVPGIGVPGIGVPGIGVPGIGVPGIGVPGIGVPGIGVPGIGVPGIGVPGIGVPGIGVPGIGVPGIGVPGIGVPGIGVPGIGVPGIGVPGIGVPGIGVPGIGVPGIGVPGIG
formation of nanoparticles [3]: do not form nanoparticles

B5: knob-(VPGIG)96Y (SEQ ID. NO: 9) (protein)
chain: VPGIGVPGIGVPGIGVPGIGVPGIGVPGIGVPGIGVPGIGVPGIGVPGIGVPGIGVPGIGVPGIGVPGIGVPGIGVPGIGVPGIGVPGIGVPGIGVPGIGVPGIGVPGIGVPGIGVPGIGVPGIGVPGIGVPGIGVPGIGVPGIGVPGIGVPGIGVPGIGVPGIGVPGIGVPGIGVPGIGVPGIGVPGIGVPGIGVPGIGVPGIGVPGIGVPGIGVPGIGVPGIGVPGIGVPGIGVPGIGVPGIGVPGIGVPGIGVPGIGVPGIGVPGIGVPGIGVPGIGVPGIGVPGIGVPGIGVPGIGVPGIGVPGIGVPGIGVPGIGVPGIGVPGIGVPGIGVPGIGVPGIGVPGIGVPGIGVPGIGVPGIGVPGIGVPGIGVPGIGVPGIGVPGIGVPGIGVPGIGVPGIGVPGIGVPGIGVPGIGVPGIGVPGIGVPGIGVPGIGVPGIGVPGIGVPGIGVPGIGVPGIGVPGIGVPGIGVPGIGY
phase transition behaviour in optical density over temperature gradient [1]: phase-separates near room temperature
